Results from article PMC3247260 (2011).

Legend:
Assay in all cases: ITC
[1] = molecular target: K48-linked diUb (UniProt P0CG48 1-76, K48-linked (isopeptide linkage between the two Ub units))
[2] = molecular target: linear diUb (UniProt P0CG48 1-76; P0CG48 1-76)
[3] = molecular target: ubiquitin (Ub) (UniProt P0CG48 1-76)

Kd [1]: 1800 nM
Kd [2]: 2300 nM
Kd [3]: 21000 nM
B1: tandem UBA domains of USP13 (USP13-UBA12, residues 652-776) (domain or fragment)
chain: DIDESSVMQLAEMGFPLEACRKAVYFTGNMGAEVAFNWIIVHMEEPDFAEPLTMPGYGGAASAGASVFGASGLDNQPPEEIVAIITSMGFQRNQAIQALRATNNNLERALDWIFSHPEFEEDSDF
